Holding throughout (test): cell-based or functional assay
For assay [1], the target named is mouse melanocortin-1 receptor (mouse) (UniProt Q01727).
For assay [2], the target named is mouse melanocortin-5 receptor (mouse) (UniProt P41149).
The target in assay [3] is mouse melanocortin-3 receptor (mouse) (UniProt P33033).
For assay [4], the target named is mouse melanocortin-4 receptor (mouse) (UniProt P56450).
mouse melanocortin-4 receptor (mouse), sequence (P56450 whole entry): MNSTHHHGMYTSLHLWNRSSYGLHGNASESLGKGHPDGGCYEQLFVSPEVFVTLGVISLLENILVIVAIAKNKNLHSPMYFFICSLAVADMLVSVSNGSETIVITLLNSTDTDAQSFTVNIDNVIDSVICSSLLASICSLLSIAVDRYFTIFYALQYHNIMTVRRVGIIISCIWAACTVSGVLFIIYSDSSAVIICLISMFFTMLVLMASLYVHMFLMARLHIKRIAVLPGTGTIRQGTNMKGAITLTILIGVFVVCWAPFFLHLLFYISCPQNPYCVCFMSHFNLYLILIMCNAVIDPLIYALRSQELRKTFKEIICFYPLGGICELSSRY

mouse melanocortin-3 receptor (mouse), sequence (P33033 whole entry): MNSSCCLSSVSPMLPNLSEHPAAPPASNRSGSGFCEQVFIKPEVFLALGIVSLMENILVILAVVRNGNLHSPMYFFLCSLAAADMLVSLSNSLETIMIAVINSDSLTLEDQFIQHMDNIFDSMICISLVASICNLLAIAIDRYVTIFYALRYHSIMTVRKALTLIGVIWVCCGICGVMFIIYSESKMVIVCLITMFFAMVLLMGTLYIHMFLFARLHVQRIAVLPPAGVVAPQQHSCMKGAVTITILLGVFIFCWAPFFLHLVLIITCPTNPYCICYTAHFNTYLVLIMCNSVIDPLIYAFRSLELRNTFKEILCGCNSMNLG
mouse melanocortin-5 receptor (mouse), sequence (P41149 whole entry): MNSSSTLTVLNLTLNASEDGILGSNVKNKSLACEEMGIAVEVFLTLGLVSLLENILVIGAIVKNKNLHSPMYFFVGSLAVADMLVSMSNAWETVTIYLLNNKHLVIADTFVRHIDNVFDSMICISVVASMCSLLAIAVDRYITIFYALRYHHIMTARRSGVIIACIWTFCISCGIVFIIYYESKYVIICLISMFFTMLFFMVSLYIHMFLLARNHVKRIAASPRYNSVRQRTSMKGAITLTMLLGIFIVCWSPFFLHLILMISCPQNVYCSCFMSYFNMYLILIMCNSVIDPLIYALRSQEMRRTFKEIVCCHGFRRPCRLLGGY
mouse melanocortin-1 receptor (mouse), sequence (Q01727 whole entry): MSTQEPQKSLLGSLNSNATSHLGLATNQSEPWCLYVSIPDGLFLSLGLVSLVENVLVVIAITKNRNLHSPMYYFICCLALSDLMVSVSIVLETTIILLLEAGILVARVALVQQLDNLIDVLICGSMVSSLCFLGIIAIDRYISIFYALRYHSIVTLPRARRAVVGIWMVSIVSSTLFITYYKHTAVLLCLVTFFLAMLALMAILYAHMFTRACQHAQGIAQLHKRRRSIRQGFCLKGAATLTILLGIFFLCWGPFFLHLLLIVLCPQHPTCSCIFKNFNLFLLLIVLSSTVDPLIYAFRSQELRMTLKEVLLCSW

For MTII (peptide), the EC50 (agonist) in assay [1] is 0.02 nM.

Regarding NDP-MSH (peptide), the figures for the EC50 (agonist) in assay [2] and in assay [3] were 0.071 nM and 0.098 nM, respectively.

“hAGRP(109-118) decapeptide (from UniProt O00253 109-118)”: the EC50 (agonist) in assay [2] was > 100000 nM; in assay [3] it was > 100000 nM; in assay [1] it was 5120 nM. This substance yielded a pA2 (antagonist) in assay [4] of 6.8.

(Values after patent US7084111.)
